In patent US20240391954A1, “MC4R AGONIST PEPTIDES” (The Regents of the University of Michigan, priority 2021, published 2024):
Positions of bridges follow the written chain, without caps; N, C: chain ends. Non-standard residues stand in square brackets, D forms with d. NMeW = CN[C@@H](Cc1c[nH]c2ccccc12)C(=O)O; 2Nal = N[C@@H](Cc1ccc2ccccc2c1)C(=O)O; d2Nal = N[C@H](Cc1ccc2ccccc2c1)C(=O)O; NMeH = CN[C@@H](Cc1c[nH]cn1)C(=O)O; Cit = NC(=O)NCCC[C@H](N)C(=O)O; Nle = CCCC[C@H](N)C(=O)O; Aib = CC(C)(N)C(=O)O

Experiments:
Test in all cases: cell-based or functional assay
human MC4R receptor [1] = molecular target: T1, human MC4R receptor (human, UniProt P32245 1-332)
human MC3R = human MC3R (human, UniProt P41968 1-323)
human MC4R receptor [2] = molecular target: T1, human MC4R receptor; remark: listed apart in the source

Chain of human MC3R (P41968 whole entry): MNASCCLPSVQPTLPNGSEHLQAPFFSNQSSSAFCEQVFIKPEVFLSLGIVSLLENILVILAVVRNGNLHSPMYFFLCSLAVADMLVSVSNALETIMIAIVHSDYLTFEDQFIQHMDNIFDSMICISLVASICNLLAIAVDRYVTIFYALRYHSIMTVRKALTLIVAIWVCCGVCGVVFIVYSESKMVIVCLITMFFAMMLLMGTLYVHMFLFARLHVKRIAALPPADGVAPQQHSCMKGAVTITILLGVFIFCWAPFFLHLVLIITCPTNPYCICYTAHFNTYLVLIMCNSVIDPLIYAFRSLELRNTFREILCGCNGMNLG
T1 sequence (P32245 whole entry): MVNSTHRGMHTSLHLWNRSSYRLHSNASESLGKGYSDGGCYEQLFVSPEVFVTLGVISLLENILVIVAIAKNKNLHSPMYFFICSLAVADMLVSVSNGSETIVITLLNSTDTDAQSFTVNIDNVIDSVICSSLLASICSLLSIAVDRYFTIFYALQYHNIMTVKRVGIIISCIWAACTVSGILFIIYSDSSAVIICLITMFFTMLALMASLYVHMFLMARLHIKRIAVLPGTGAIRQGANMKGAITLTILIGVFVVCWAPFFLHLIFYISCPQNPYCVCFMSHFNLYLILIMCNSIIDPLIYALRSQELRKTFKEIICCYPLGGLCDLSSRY

% max activation (human MC4R receptor [1])	cAMP EC50 (human MC4R receptor [1])	% max activation (human MC3R)	cAMP EC50 (human MC3R)	MC4R selectivity vs MC1R (human MC4R receptor [2])	MC4R selectivity vs MC3R (human MC4R receptor [2])	Binder
80%	13 nM	44%	3.7 nM	0.14	0.29	Ac-RC[dA]R[dF]R[d2Nal]C-NH2 (disulfide 2-8) [CTX-1264]
96%	3 nM	40%	12 nM	0.5	4.07	Ac-RCAR[dF]RWC-NH2 (disulfide 2-8; SMILES CC(=O)N[C@@H](CCCNC(=N)N)C(=O)N[C@H]1CSSC[C@@H](C(N)=O)NC(=O)[C@H](Cc2c[nH]c3ccccc23)NC(=O)[C@H](CCCNC(=N)N)NC(=O)[C@@H](Cc2ccccc2)NC(=O)[C@H](CCCNC(=N)N)NC(=O)[C@H](C)NC1=O) [CTX-1267]
113%	288 nM	125%	15200 nM	0.95	53	{CH2CO}-[Aib]H[dF]RFC-NH2 (thioether N-6; SMILES CC1(C)NC(=O)CSC[C@@H](C(N)=O)NC(=O)[C@H](Cc2ccccc2)NC(=O)[C@H](CCCNC(=N)N)NC(=O)[C@@H](Cc2ccccc2)NC(=O)[C@H](Cc2c[nH]cn2)NC1=O) [CTX-1650]
–	703 nM	–	29.9 nM	0.02	–	Ac-RC[dA]R[dF]R[dF]C-NH2 (disulfide 2-8; SMILES CC(=O)N[C@@H](CCCNC(=N)N)C(=O)N[C@H]1CSSC[C@@H](C(N)=O)NC(=O)[C@@H](Cc2ccccc2)NC(=O)[C@H](CCCNC(=N)N)NC(=O)[C@@H](Cc2ccccc2)NC(=O)[C@H](CCCNC(=N)N)NC(=O)[C@@H](C)NC1=O) [CTX-1265]
92%	1190 nM	–	> 10000 nM	1.45	> 8	{CH2CO}-[Aib]R[dF]RFC-NH2 (thioether N-6; SMILES CC1(C)NC(=O)CSC[C@@H](C(N)=O)NC(=O)[C@H](Cc2ccccc2)NC(=O)[C@H](CCCNC(=N)N)NC(=O)[C@@H](Cc2ccccc2)NC(=O)[C@H](CCCNC(=N)N)NC1=O) [CTX-1651]
101%	1.1 nM	91%	72 nM	13	63	{CH2CO}-[Aib]R[dF]RWC-NH2 (thioether N-6; SMILES CC1(C)NC(=O)CSC[C@@H](C(N)=O)NC(=O)[C@H](Cc2c[nH]c3ccccc23)NC(=O)[C@H](CCCNC(=N)N)NC(=O)[C@@H](Cc2ccccc2)NC(=O)[C@H](CCCNC(=N)N)NC1=O) [CTX-1648]
87%	7210 nM	99%	39 nM	–	0.01	Ac-[Nle]CH[2Nal]R[dW]CRFG-NH2 (disulfide 2-7; SMILES CCCC[C@H](NC(C)=O)C(=O)N[C@H]1CSSC[C@@H](C(=O)N[C@@H](CCCNC(=N)N)C(=O)N[C@@H](Cc2ccccc2)C(=O)NCC(N)=O)NC(=O)[C@@H](Cc2c[nH]c3ccccc23)NC(=O)[C@H](CCCNC(=N)N)NC(=O)[C@H](Cc2ccc3ccccc3c2)NC(=O)[C@H](Cc2c[nH]cn2)NC1=O) [CTX-2128]
98%	1400 nM	86%	2300 nM	1	1.64	{CH2CO}-[dA]H[dF]RFC-NH2 (thioether N-6; SMILES C[C@H]1NC(=O)CSC[C@@H](C(N)=O)NC(=O)[C@H](Cc2ccccc2)NC(=O)[C@H](CCCNC(=N)N)NC(=O)[C@@H](Cc2ccccc2)NC(=O)[C@H](Cc2c[nH]cn2)NC1=O) [CTX-1656]
78%	2470 nM	30%	8810 nM	1.42	3.56	{CH2CO}-[dA]R[dF]RFC-NH2 (thioether N-6; SMILES C[C@H]1NC(=O)CSC[C@@H](C(N)=O)NC(=O)[C@H](Cc2ccccc2)NC(=O)[C@H](CCCNC(=N)N)NC(=O)[C@@H](Cc2ccccc2)NC(=O)[C@H](CCCNC(=N)N)NC1=O) [CTX-1657]
97%	6.6 nM	79%	479 nM	1650	72	{CH2CO}-[Aib][Cit][dF]RWC-NH2 (thioether N-6; SMILES CC1(C)NC(=O)CSC[C@@H](C(N)=O)NC(=O)[C@H](Cc2c[nH]c3ccccc23)NC(=O)[C@H](CCCNC(=N)N)NC(=O)[C@@H](Cc2ccccc2)NC(=O)[C@H](CCCNC(N)=O)NC1=O) [CTX-1649]
109%	16 nM	107%	2610 nM	2.32	161	{CH2CO}-[dA][NMeH][dF]R[NMeW]C-NH2 (thioether N-6; SMILES C[C@H]1NC(=O)CSC[C@@H](C(N)=O)NC(=O)[C@H](Cc2c[nH]c3ccccc23)N(C)C(=O)[C@H](CCCNC(=N)N)NC(=O)[C@@H](Cc2ccccc2)NC(=O)[C@H](Cc2c[nH]cn2)N(C)C1=O) [CTX-1203]
93%	6.5 nM	69%	11 nM	1.73	1.62	Ac-RC[dA]R[dF]R[dW]C-NH2 (disulfide 2-8; SMILES CC(=O)N[C@@H](CCCNC(=N)N)C(=O)N[C@H]1CSSC[C@@H](C(N)=O)NC(=O)[C@@H](Cc2c[nH]c3ccccc23)NC(=O)[C@H](CCCNC(=N)N)NC(=O)[C@@H](Cc2ccccc2)NC(=O)[C@H](CCCNC(=N)N)NC(=O)[C@@H](C)NC1=O) [CTX-1263]
81%	1090 nM	43%	5890 nM	0.62	5.41	{CH2CO}-GR[dF]RFC-NH2 (thioether N-6; SMILES N=C(N)NCCC[C@@H]1NC(=O)CNC(=O)CSC[C@@H](C(N)=O)NC(=O)[C@H](Cc2ccccc2)NC(=O)[C@H](CCCNC(=N)N)NC(=O)[C@@H](Cc2ccccc2)NC1=O) [CTX-1654]
83%	1220 nM	–	> 10000 nM	0.83	> 8	{CH2CO}-GH[dF]RFC-NH2 (thioether N-6; SMILES N=C(N)NCCC[C@@H]1NC(=O)[C@@H](Cc2ccccc2)NC(=O)[C@H](Cc2c[nH]cn2)NC(=O)CNC(=O)CSC[C@@H](C(N)=O)NC(=O)[C@H](Cc2ccccc2)NC1=O) [CTX-1653]
